Laboratory results reported in the supplement of paper PMC9170038.

System: MS2 coat protein
Assay: apparent KD of MS2 coat protein; designed switch direction (-1 OFF switch, 1 ON switch): 1; higher = weaker reporter binding
In short: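 Designed RNA switches with common flanks were transcribed on Illumina chips by stalled E. coli RNA polymerase and titrated with SNAP-549-labelled MS2 coat protein, from 0.7 or 1.5 nM doubling to 3 µM, in Tris-HCl pH 7.5 buffer with KCl, MgCl2, BSA, DTT, tRNA and Tween-20. Steps lasted 0.8–1.5 h (lowest) to 10–20 min (highest). Titrations ran without input, with 200 uM small-molecule ligand, or with an oligonucleotide input. Normalised cluster fluorescence was curve-fitted, and apparent KD is the per-design median over clusters.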

[1] = Eterna round: R95, input ligand: FMN 200 uM
[2] = Eterna round: R95, input ligand: microRNA oligo, concentration not stated
[3] = Eterna round: R95, input ligand: none
[4] = input ligand: microRNA oligo, concentration not stated

UCUUGGUUUUUGCUCGUUUUUUGUGUUGAACAUGAGGAUCACCCAUGUAUUGUACAAUCCGGUUUGAUGAUGGUCCG [JMF 52] (puzzle: Sensor for hsa-mir-208a)
apparent KD of MS2 coat protein [1]: 57.2 nM
apparent KD of MS2 coat protein [2]: 44.5 nM
apparent KD of MS2 coat protein [3]: 54.1 nM

UCUUGGUUUUUGCUCGUUUUUUGUGUUGAACAUGAGGAUCACCCAUGUAUUGUACAGUCCAAUUUAAUAAUGGUCCG [JMF 53] (puzzle: Sensor for hsa-mir-208a)
apparent KD of MS2 coat protein [1]: 34.2 nM
apparent KD of MS2 coat protein [2]: 25.4 nM
apparent KD of MS2 coat protein [3]: 46.7 nM

UCUUGGUUUUUGCUCGUUUUUUGUGUUGAACAUGAGGAUCACCCAUGUAUUGUACAGUCCGGUUUGAUGAUGGUCCG [JMF 59] (puzzle: Sensor for hsa-mir-208a)
apparent KD of MS2 coat protein [1]: 32.1 nM
apparent KD of MS2 coat protein [2]: 25.6 nM
apparent KD of MS2 coat protein [3]: 33.4 nM

UCUUGGUUUUUGCUCGUUUUUUGUGUUGAACAUGAGGAUCACCCAUGUAUUGUACGGUCCAAUUUAAUGAUGGUCCA [JMF 36] (puzzle: Sensor for hsa-mir-208a)
apparent KD of MS2 coat protein [1]: 30.8 nM
apparent KD of MS2 coat protein [2]: 17.8 nM
apparent KD of MS2 coat protein [3]: 32.4 nM

UCUUGGUUUUUGCUCGUUUUUUGUGUUGAACAUGAGGAUCACCCAUGUAUUGUACGGUCCAGUUUAAUAAUGGUCCG [JMF 30] (puzzle: Sensor for hsa-mir-208a)
apparent KD of MS2 coat protein [1]: 23.4 nM
apparent KD of MS2 coat protein [2]: 14 nM
apparent KD of MS2 coat protein [3]: 25 nM

UCUUGGUUUUUGCUCGUUUUUUGUGUUGAACAUGAGGAUCACCCAUGUAUUGUACGGUCCAGUUUAGUGGUAGUCCG [JMF 70] (puzzle: Sensor for hsa-mir-208a)
apparent KD of MS2 coat protein [1]: 34.6 nM
apparent KD of MS2 coat protein [2]: 21.5 nM
apparent KD of MS2 coat protein [3]: 36.4 nM

UCUUGGUUUUUGCUCGUUUUUUGUGUUGAACAUGAGGAUCACCCAUGUAUUGUACGGUCCGAUUUGAUAAUGGUCCA [JMF 41] (puzzle: Sensor for hsa-mir-208a)
apparent KD of MS2 coat protein [1]: 36.3 nM
apparent KD of MS2 coat protein [2]: 19.2 nM
apparent KD of MS2 coat protein [3]: 37.4 nM

UCUUGGUUUUUGCUCGUUUUUUGUGUUGAACAUGAGGAUCACCCAUGUAUUGUACGGUCCGAUUUGAUAAUGGUCCG [JMF 21] (puzzle: Sensor for hsa-mir-208a)
apparent KD of MS2 coat protein [1]: 25.8 nM
apparent KD of MS2 coat protein [2]: 14.8 nM
apparent KD of MS2 coat protein [3]: 27 nM

UCUUGGUUUUUGCUCGUUUUUUGUGUUGAACAUGAGGAUCACCCAUGUAUUGUACGGUCCGGUUUAGUAGUGGUCCA [JMF 44] (Eterna round: R96, puzzle: Sensor for hsa-mir-208a)
apparent KD of MS2 coat protein (input ligand: FMN 200 uM): 181 nM
apparent KD of MS2 coat protein [4]: 81.8 nM
apparent KD of MS2 coat protein (input ligand: none): 173 nM

UCUUGGUUUUUGCUCGUUUUUUGUGUUGAACAUGAGGAUCACCCAUGUAUUGUACGGUCCGGUUUAGUAGUGGUCCA [JMF 44] (puzzle: Sensor for hsa-mir-208a)
apparent KD of MS2 coat protein [1]: 118 nM
apparent KD of MS2 coat protein [2]: 92.8 nM
apparent KD of MS2 coat protein [3]: 144 nM

UGAACCUUCACAGGAUAUCAUGCGAAAAUUGCGUGAGAAGGGUGGAUGUGGCGUUCAAAGAUGCACAUGAGGAUCACCCAUGUA [SameState NG1 #49] (Eterna round: R96, puzzle: Same State NG 1)
apparent KD of MS2 coat protein (input ligand: FMN 200 uM): 162 nM
apparent KD of MS2 coat protein [4]: 113 nM
apparent KD of MS2 coat protein (input ligand: none): 191 nM

UGAAUAAUGAUAGGAUAUACAUGAGGAAUCCUCGUAGAAGGAUCAUGACAUGAGGAUCACCCAUGUAGCGCUCAGAAGAGCGCA [Mat - Same State NG 1 - JL mod - D51] (Eterna round: R96, puzzle: Same State NG 1)
apparent KD of MS2 coat protein (input ligand: FMN 200 uM): 160 nM
apparent KD of MS2 coat protein [4]: 76.7 nM
apparent KD of MS2 coat protein (input ligand: none): 191 nM

UGAAUAGUGAUAGGAUAUACAUGAGGAAUCCUCGUAGAAGGAUCACGACAUGAGGAUCACCCAUGUAGCCGUCGAAAGACGGCA [Mat - Same State NG 1 - JL mod - D61] (Eterna round: R96, puzzle: Same State NG 1)
apparent KD of MS2 coat protein (input ligand: FMN 200 uM): 924 nM
apparent KD of MS2 coat protein [4]: 86.1 nM
apparent KD of MS2 coat protein (input ligand: none): 192 nM

UGAAUAGUGAUAGGAUAUACAUGAGGAAUCCUCGUAGAAGGAUCAUAACAUGAGGAUCACCCAUGUAGCCGUCAGAAGACGGCA [Mat - Same State NG 1 - JL mod - D57] (Eterna round: R96, puzzle: Same State NG 1)
apparent KD of MS2 coat protein (input ligand: FMN 200 uM): 94.6 nM
apparent KD of MS2 coat protein [4]: 284 nM
apparent KD of MS2 coat protein (input ligand: none): 178 nM

UGAAUAGUUACAGGAUAUCAUGCGAAAAUUGCGUGAGAAGGGUGGGUGUUGUGCUCAAAGUGCUACAUGAGGAUCACCCAUGUU [SameState NG1 #40] (Eterna round: R96, puzzle: Same State NG 1)
apparent KD of MS2 coat protein (input ligand: FMN 200 uM): 1720 nM
apparent KD of MS2 coat protein [4]: 99.3 nM
apparent KD of MS2 coat protein (input ligand: none): 497 nM

UGAAUAGUUACAGGAUAUGAGCCGAAAAUUGGGUCAGAAGGGUGGGUGUUGUGCGCUAUGUGCUACAUGAGGAUCACCCAUGUU [SameState NG1 #35] (Eterna round: R96, puzzle: Same State NG 1)
apparent KD of MS2 coat protein (input ligand: FMN 200 uM): 1210 nM
apparent KD of MS2 coat protein [4]: 23.3 nM
apparent KD of MS2 coat protein (input ligand: none): 208 nM

UGAAUAGUUACAGGAUAUGAGCCGUAAAUUGGGUCAGAAGGGUGGGUGUUUUGCGCUGUGUGUUACAUGAGGAUCACCCAUGUU [SameState NG1 #32] (Eterna round: R96, puzzle: Same State NG 1)
apparent KD of MS2 coat protein (input ligand: FMN 200 uM): 206 nM
apparent KD of MS2 coat protein [4]: 86.7 nM
apparent KD of MS2 coat protein (input ligand: none): 137 nM

UGACACACGGCAGGAUAUCGAUAGCAAAGCUAUCGAGAAGGGCCUCAUGUCGUGGAAACGUGACAUGAGGAUCACCCAUGUUGC [Omei SS(NG)1 Cv11] (Eterna round: R96, puzzle: Same State NG 1)
apparent KD of MS2 coat protein (input ligand: FMN 200 uM): 280 nM
apparent KD of MS2 coat protein [4]: 8.42 nM
apparent KD of MS2 coat protein (input ligand: none): 51.4 nM

UGACACACGGCAGGAUAUCGAUUGCAAAGCAAUCGAGAAGGGCCUCAUGUCGUGGAAACGUGACAUGAGGAUCACCCAUGUCGC [Omei SS(NG)1 Cv13] (Eterna round: R96, puzzle: Same State NG 1)
apparent KD of MS2 coat protein (input ligand: FMN 200 uM): 53.1 nM
apparent KD of MS2 coat protein [4]: 11.6 nM
apparent KD of MS2 coat protein (input ligand: none): 24 nM

UGACACACGGCAGGAUAUCGUUAGCAAAGCUAACGAGAAGGGCCUCAUGUCGUGGAAACGUGACAUGAGGAUCACCCAUGUCGC [Omei SS(NG)1 Cv9] (Eterna round: R96, puzzle: Same State NG 1)
apparent KD of MS2 coat protein (input ligand: FMN 200 uM): 272 nM
apparent KD of MS2 coat protein [4]: 27.3 nM
apparent KD of MS2 coat protein (input ligand: none): 58.5 nM

UGACACACGGCAGGAUAUGCUUAGCAAAGCUAAGCAGAAGGGCCUCAUGUCGUGGAAACGUGACAUGAGGAUCACCCAUGUCGC [Omei SS(NG)1 Cv4] (Eterna round: R96, puzzle: Same State NG 1)
apparent KD of MS2 coat protein (input ligand: FMN 200 uM): 122 nM
apparent KD of MS2 coat protein [4]: 6.01 nM
apparent KD of MS2 coat protein (input ligand: none): 17.7 nM

UGACACACGGCAGGAUAUGCUUAGCAAAGCUAAGCAGAAGGGCCUCAUGUCGUGGAAACGUGACAUGAGGAUCACCCAUGUUGC [Omei SS(NG)1 Cv2] (Eterna round: R96, puzzle: Same State NG 1)
apparent KD of MS2 coat protein (input ligand: FMN 200 uM): 306 nM
apparent KD of MS2 coat protein [4]: 46.8 nM
apparent KD of MS2 coat protein (input ligand: none): 57.9 nM

UGACACACGGCAGGAUAUGCUUAGCAAAGCUAAGCAGAAGGGCCUCAUGUCGUGGAAAUGUGACAUGAGGAUCACCCAUGUUGC [Omei SS(NG)1 Cv6] (Eterna round: R96, puzzle: Same State NG 1)
apparent KD of MS2 coat protein (input ligand: FMN 200 uM): 39.3 nM
apparent KD of MS2 coat protein [4]: 20.7 nM
apparent KD of MS2 coat protein (input ligand: none): 92.2 nM

UGAGCCGGCACUGAGGAUAUUCAUAUUAAAACAUGAGGAUCACCCAUGUAGGCCAGAAGGCCUUGGGAGAAGGCAGGUCGGCUCU [Mat - Same State 2 - Mod of UCT - D60] (puzzle: Same State 2)
apparent KD of MS2 coat protein [1]: 22.6 nM
apparent KD of MS2 coat protein [2]: 185 nM
apparent KD of MS2 coat protein [3]: 334 nM

UGCAGCUACGUAGGAUAUCCGAAAGGAAGUGUAGGAGAAGGACGAGAGCCGCCUUACGUACAUGAGGAUCACCCAUGUAGUAGG [PowerStrip SSNG 1.22] (Eterna round: R96, puzzle: Same State NG 1)
apparent KD of MS2 coat protein (input ligand: FMN 200 uM): 13.7 nM
apparent KD of MS2 coat protein [4]: 21.8 nM
apparent KD of MS2 coat protein (input ligand: none): 25.9 nM

UGCAUACAUGAGGAUCACCCAUGUCAACGUAGUCGAGGAUAUGGGCAGCCGUGAGGCGAACCAGAAGGCGAAUUGU [JL-ss1-3.03 ViennaUCT mod] (puzzle: Same State 1)
apparent KD of MS2 coat protein [1]: 23.1 nM
apparent KD of MS2 coat protein [2]: 52.7 nM
apparent KD of MS2 coat protein [3]: 115 nM

UGCCUGAGUCGAGGAUAUUAUGGAUCCUUUAAUACAUGAGGAUCACCCAUGUAAUUAAUUAUACAUGAGAAGGCGACUCAGGCU [SSNG2/11-A3] (Eterna round: R96, puzzle: Same State NG 2)
apparent KD of MS2 coat protein [4]: 58.9 nM

UGCUAUCGAAAACGAUAGCUAAAGUUUGUACAUGAGGAUCACCCAUGUUGUACAAGCUUUUUGCUCGUCUUAAAUAA [JL SD Zipper 16] (Eterna round: R96, puzzle: Sensor for hsa-mir-208a)
apparent KD of MS2 coat protein (input ligand: FMN 200 uM): 67.1 nM
apparent KD of MS2 coat protein [4]: 15.2 nM
apparent KD of MS2 coat protein (input ligand: none): 62.4 nM

UGCUAUUGUAUAUUGGUGCAAGCUUUUUGACAUGAGGAUCACCCAUGUACUCGUCUUAUGUGCAGUCCGUAGACUGC [JL-shm-2.24 Brourd mod] (puzzle: Sensor for hsa-mir-208a)
apparent KD of MS2 coat protein [1]: 47.8 nM
apparent KD of MS2 coat protein [2]: 13.4 nM
apparent KD of MS2 coat protein [3]: 45.6 nM

UGCUUCAUGUAAGGAUAUGCAGCCGUUUCGGCUGCAGAAGGUACUAUAAUACAUGAGGAUCACCCAUGUCUCUCGCAUUGCGGG [salish99_SSng1_r04_302] (Eterna round: R96, puzzle: Same State NG 1)
apparent KD of MS2 coat protein (input ligand: FMN 200 uM): 91 nM
apparent KD of MS2 coat protein [4]: 118 nM
apparent KD of MS2 coat protein (input ligand: none): 184 nM

UGGAUCUAGGCUUGCCUGGGUCCAUGUUGACAUGAGGAUCACCCAUGUGUAUUUUUUUAGCUUUUUGUUUGUCAACU [JL A Humble Attempt mod 10] (puzzle: Sensor for hsa-mir-208a)
apparent KD of MS2 coat protein [1]: 26.2 nM
apparent KD of MS2 coat protein [2]: 13 nM
apparent KD of MS2 coat protein [3]: 25.5 nM
